The RNAGym collection of RNA variant scans (doi:10.1073/pnas.2313332121)

B1: TPR t1 (parent)
chain: GACCAAUCUGCCCUCAGAGCUCGAGAACAUCUUCGGAUGCAGAGGAGGCAGGCUUCGGUGGCGCGAUAGCGCCAACGUCCUCAACCUCCAAUGCAUCCCACCACAUGAUGAUGCCUGAAGAGCCUUGGUUUUUUG

Variants of: B1
Test: polymerase ribozyme fitness, log enrichment relative to wild type (log ratio); higher = more active; in vitro selection for triplet polymerase activity
Procedure, shortened: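 Streptavidin-bead capture of gel-excised extended constructs, followed by RT-PCR, closed a single triplicate in vitro selection round. That round began by annealing PCR-built, transcribed mutant libraries of each subunit of a heterodimeric triplet polymerase ribozyme with a biotinylated primer, the partner subunit and triplets, then incubating them frozen at −7 °C. After Illumina sequencing of inputs and outputs, genotypes needed ≥10 input reads and ≥1 read per output. Fitness is the base-2 logarithm of genotype enrichment over wild-type enrichment, using inverse-variance-weighted replicate averages.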

In order of rising “polymerase ribozyme fitness (log ratio)” value:
1. U38G G45C G69C C101A A119U  -7.2
2. A37U A43U G93C U116A  -6.51
3. A37U G48A A105U A111U  -6.33
4. A37G G48A C56G G71U G117C  -6.21
5. A37G C56U A100U C102A U116A  -6.14
6. A37G G51C G77C C80A G120C G128C  -5.93
7. A37U A43G A50C G52U G110A  -5.79
8. A37U C70A C99U  -5.64
9. A37G G48A C56G G93A G110C  -5.64
10. U38G C79U C97U  -5.59
11. A37U G42C C49G C85U G93U C102U U133G  -5.53
12. A37G U109G  -5.43
13. A37U C72U C98A C123G  -5.11
14. A37G G63U C101G C104G C114U G128A  -4.99
15. A37G U38G G61U C104U C124G  -4.81
16. A37G C64U U78C C86G  -4.56
17. G36U U106G  -4.55
18. A37U C49A C86U G117C  -4.27
19. A37C G42A A43U C49U C53G U55C  -4.27
20. A37G C88A A91U  -4.17
21. U38A A41G G44A C64U C82U  -4.14
22. U38A G57A U116A G120A  -4.1
23. A37U G39C G57C G61A U106C G113C  -4.04
24. A37U C40A C94U  -4.04
25. U38G G58U G63C G113C G135C  -4.03
26. A37C G58A C72G U78C G113C  -3.84
27. U38A C62G  -3.68
28. U38A G39U C82G U130A  -3.44
29. A37U U81G  -3.43
30. U38A C82A C114A G120C A121C U132C  -3.34
31. U38G G39U U54G U87A G113C  -3.28
32. A37U C89U A108G  -3.18
33. A37U G113U  -3.11
34. A37C C53U U81G  -2.81
35. U38G C62G C86A C124A  -2.75
36. U38A G52A U55G G128A  -2.73
37. A37U C80U C101A  -2.69
38. A37U G47C C49U  -2.66
39. A37G G69U C89G  -2.64
40. A37U G45C A46C U78A  -2.59
41. A37U U126A  -2.55
42. A37U G113A C123U  -2.5
43. U38A G61C  -2.48
44. A37C G44U C62A  -2.41
45. U38A G63C C85U  -2.4
46. A37U A43G C86G  -2.33
47. A37C U116G  -2.29
48. U38C G117U G120A  -2.23
49. U38A C94G  -2.2
50. A37U C94U G117A  -2.17
51. U38G C89A  -2.14
52. A37C C53G G71C C82U C101A A119U  -2
53. U38G G52A G61A U112G C124U U129G  -1.92
54. U38G C56A G69U  -1.9
55. A37U G69C C72U C85U  -1.89
56. U38A U59G A83C  -1.75
57. A37U G69A A83U U96A C124U U131A  -1.63
58. A37U A66U  -1.5
59. A37C C98U  -1.41
60. A37U G39U  -1.39
61. A37U C49G U55A C104A  -1.38
62. U38G C76U  -1.36
63. U38A A111G  -1.31
64. A37U G57C G63A  -1.29
65. A37U G47A G77A  -1.29
66. U38G C56G G57C G77U  -1.18
67. A37U A50C C70A C124G  -1.17
68. A37U C40U U87G  -1.01
69. U38A  -0.984
70. A37C A91C  -0.946
71. A37U C86U  -0.912
72. U38G  -0.73
73. U38C  -0.501
74. A37U G48A  -0.338
75. A37G C72U  -0.261
76. U38C C123A  -0.222
77. A37G A111C C124G  0.322
78. A37C G120U  0.436
79. A37G C53A G57U  0.602
80. A37C U96G  0.787
81. A37C G60U U81A A121C  0.858
82. A37U G48C A121C  0.912
83. U38C U112A  1.08
84. A37U U54C G60U C123U  1.13
